Laboratory results: patent publication US20210107998A1 (Boehringer Ingelheim, published 2021)
Substitutions are numbered along the chain they refer to. Blank lines part the entries; values can stand above or below the binder they belong to.

Tests used:
cynomolgus IL-23 [1] = target: T1, cynomolgus IL-23 (cynomolgus, UniProt H6WS56 20-189); test: SPR (ProteOn XPR36), compound captured on goat anti-human IgG Fc, antigen injected
Procedure: (§1) SPR experiments were performed on a ProteOn XPR36 instrument (Bio Rad). A GLM chip was preconditioned with sequential injections of 60 sec of 0.5% SDS, 50 mM NaOH, and 100 mM HCl at a flow rate of 30 μl/min both vertical and horizontal directions.
(§2) The preconditioned GLM chip was then activated by an injection of EDC (76.7 mg/ml) and sulfo-NHS (21.7 mg/ml) mixture with ratio of 1:1 in 6 horizontal channels. Goat-anti-human IgG (GAHA) Fc gamma (Invitrogen) at a concentration of 30 μg/ml in 10 mM, pH 5.0 sodium acetate buffer was immobilized to 8,000 resonance units on the activated GLM chip in 6 horizontal channels. The chip was finally deactivated with 1 M ethanolamine HCl in 6 horizontal channels. The prepared GAHA chip was rotated to vertical direction to capture test compounds, over 5 vertical channels and the last channel was used as a column reference. The captured chip was then rotated again to the horizontal direction for binding. […] The dissociation was allowed for 2 hour. The GAHA surface was regenerated using short pulse injection (18 seconds) of 0.85% phosphoric acid (Bio Rad) at a flow rate of 100 μl/min both horizontal and vertical directions after 10 min association and 2 hr dissociation. The regenerated GAHA was ready for another binding cycle.

cynomolgus BAFF = target: T2, cynomolgus BAFF (cynomolgus, UniProt A0A2K5V2X4 134-285); test: as above
T2 construct: construct not described
Procedure: as §1, §2

[2] = target: T3, Linked human IL-23 (Boehringer Ingelheim Pharmaceuticals, Inc.) (human, UniProt P29460 23-328); test: as above
T3 sequence 1: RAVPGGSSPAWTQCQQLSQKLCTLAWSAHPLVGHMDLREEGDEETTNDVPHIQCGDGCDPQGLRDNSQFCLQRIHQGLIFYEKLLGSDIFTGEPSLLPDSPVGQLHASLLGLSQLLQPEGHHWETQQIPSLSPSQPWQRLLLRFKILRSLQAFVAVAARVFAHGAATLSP
T3 sequence 2: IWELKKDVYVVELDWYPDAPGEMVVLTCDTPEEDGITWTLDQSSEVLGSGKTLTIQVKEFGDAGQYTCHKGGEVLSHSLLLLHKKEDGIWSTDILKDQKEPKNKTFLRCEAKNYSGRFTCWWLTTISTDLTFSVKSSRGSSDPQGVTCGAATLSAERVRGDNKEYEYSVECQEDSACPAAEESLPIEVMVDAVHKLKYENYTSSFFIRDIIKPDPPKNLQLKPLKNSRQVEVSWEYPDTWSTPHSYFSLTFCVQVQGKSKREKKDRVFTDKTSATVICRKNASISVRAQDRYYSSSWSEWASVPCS
Procedure: as §1, §2

human BAFF [3] = target: T4, human BAFF (human, UniProt Q9Y275 134-285, limits assumed); test: as above
T4 construct: also called hu BAFF; hBAFF
Procedure: as §1, §2

[4] = target: Recombinant cynomolgus BAFF trimer (Boehringer Ingelheim Pharmaceuticals, Inc.) (cynomolgus, UniProt A0A2K5V2X4 134-285); test: cell-based or functional assay
human BAFF [5] = target: T4, human BAFF; test: cell-based or functional assay
Recombinant human IL-23 [6] = target: T5, Recombinant human IL-23 (human, UniProt P29460 23-328); test: BLI (Octet RED96, streptavidin tips), compound incubated 48 h at 37 C in whole blood vs kinetic buffer
T5 construct: also called hu IL23
T5 sequence 1: T3 sequence 1
T5 sequence 2: T3 sequence 2
Procedure: (§3) A whole blood interference assay was developed on an Octet RED96 to detect the effects of non-specific binding or off-target binding for compounds in the presence of whole blood (WB). The compound solutions in whole blood and 1× kinetic running buffer (1×kb) were incubated at a temperature of 37° C. for 48 hours. Kinetic measurements for the incubated compound samples were performed with an Octet RED96 equipped with streptavidin (SA) biosensor tips (ForteBio, Menlo Park, Calif.) at 27° C. The ratio of the on-rates/binding signals in buffer and whole blood were reported. A ratio <2 was considered to show no interference.

human BAFF [7] = target: T4, human BAFF; test: as above
Procedure: as §3

[8] = target: T6, Recombinant human BAFF trimer (Boehringer Ingelheim Pharmaceuticals, Inc.) (human, UniProt Q9Y275 134-285, limits assumed); test: cell-based or functional assay
[9] = target: membrane-bound human BAFF on fixed CHO-K1 cells (human, UniProt Q9Y275 1-285); test: cell-based or functional assay
[10] = target: T6, Recombinant human BAFF trimer …; test: cell-based or functional assay; remark: listed apart in the source
[11] = target: Recombinant human BAFF 60mer (Boehringer Ingelheim Pharmaceuticals, Inc.) (human, UniProt Q9Y275 134-285, limits assumed); test: cell-based or functional assay
Recombinant human IL-23 [12] = target: T5, Recombinant human IL-23; test: cell-based or functional assay
cynomolgus IL-23 [13] = target: T1, cynomolgus IL-23; test: cell-based or functional assay
Recombinant human IL-23 [14] = target: T5, Recombinant human IL-23; test: cell-based or functional assay; remark: listed apart in the source

- Kd (cynomolgus IL-23 [1]): < 0.015 nM
- Kd (cynomolgus BAFF): < 0.015 nM
- Kd [2]: < 0.015 nM
- Kd (human BAFF [3]): < 0.015 nM
- IC50 Geomean, NFkB luciferase reporter, human BAFFR-CHO cells [4]: 132 pM
- IC90 Geomean, NFkB luciferase reporter, human BAFFR-CHO cells [4]: 295 pM
- IC50, 3H-thymidine incorporation, primary human B cells stimulated with anti-IgM and hBAFF (human BAFF [5]): 33.7 pM
- Ratio of binding signal in WB/kinetic buffer (Recombinant human IL-23 [6]): 1.5
- Ratio of binding signal in WB/kinetic buffer (human BAFF [7]): 1.2
- IC50 Geomean, NFkB luciferase reporter, human TACI-CHO cells [8]: 159 pM
- IC90 Geomean, NFkB luciferase reporter, human TACI-CHO cells [8]: 510 pM
- IC50, NFkB luciferase reporter, human BAFFR-CHO cells stimulated with fixed human BAFF CHO-K1 cells [9]: 125 pM
- IC90, NFkB luciferase reporter, human BAFFR-CHO cells stimulated with fixed human BAFF CHO-K1 cells [9]: 1140 pM
- IC50, NFkB luciferase reporter, human BAFFR-CHO cells [10]: 39 pM
- IC90, NFkB luciferase reporter, human BAFFR-CHO cells [10]: 256 pM
- IC50, NFkB luciferase reporter, human BAFFR-CHO cells [11]: 6 pM
- IC90, NFkB luciferase reporter, human BAFFR-CHO cells [11]: 17 pM
- IC50, STAT3-luciferase reporter in DB lymphoblast B cells (Recombinant human IL-23 [12]): 161 pM
- IC90, STAT3-luciferase reporter in DB lymphoblast B cells (Recombinant human IL-23 [12]): 1100 pM
- IC50, IL-23-induced mouse IL-17 release from mouse splenocytes (cynomolgus IL-23 [13]): 200 pM
- IC90, IL-23-induced mouse IL-17 release from mouse splenocytes (cynomolgus IL-23 [13]): 1480 pM
- IC50, IL-23-induced mouse IL-17 release from mouse splenocytes (Recombinant human IL-23 [14]): 202 pM
- IC90, IL-23-induced mouse IL-17 release from mouse splenocytes (Recombinant human IL-23 [14]): 1360 pM
B1: Compound B (bispecific antibody, human IgG4 S228P, kappa)
chain 1: DIQMTQSPSSLSASVGDRVTITCKASRDVAIAVAWYQQKPGKVPKLLIYWASTRHTGVPSRFSGSGSRTDFTLTISSLQPEDVADYFCHQYSSYPFTFGSGTKLEIKGGGSGGGGQVQLVQSGAEVKKPGASVKVSCKASGYSFSTFFIHWVRQAPGQGLEWIGRIDPNSGATKYNEKFESRVTMTRDTSISTAYMELSRLRSDDTAVYYCARGEDLLIRTDALDYWGQGTSVTVSSLGGGSGASTKGPSVFPLAPCSRSTSESTAALGCLVKDYFPEPVTVSWNSGALTSGVHTFPAVLQSSGLYSLSSVVTVPSSSLGTKTYTCNVDHKPSNTKVDKRVESKYGPPCPPCPAPEFLGGPSVFLFPPKPKDTLYITREPEVTCVVVDVSQEDPEVQFNWYVDGVEVHNAKTKPREEQFNSTYRVVSVLTVLHQDWLNGKEYKCKVSNKGLPSSIEKTISKAKGQPREPQVYTLPPSQEEMTKNQVSLTCLVKGFYPSDIAVEWESNGQPENNYKTTPPVLDSDGSFFLYSRLTVDKSRWQEGNVFSCSVMHEALHNHYTQKSLSLSLG
chain 2: DIQMTQSPSSLSASVGDRVSITCKASQNAGIDVAWFQQKPGKAPKLLIYSKSNRYTGVPSRFSGSGSGTDFTLTISSLQPEDFATYYCLQYRSYPRTFGQGTKLEIKGGGSGGGGQVQLVQSGAEVKKPGSSVKVSCKASGYTFTDQTIHWMRQAPGQGLEWIGYIYPRDDSPKYNENFKGKVTITADKSTSTAYMELSSLRSEDTAVYYCAIPDRSGYAWFIYWGQGTLVTVSSLGGGSGRTVAAPSVFIFPPSDEQLKSGTASVVCLLNNFYPREAKVQWKVDNALQSGNSQESVTEQDSKDSTYSLSSTLTLSKADYEKHKVYACEVTHQGLSSPVTKSFNRGEC
notes: Large chain: IL23A(1) VL - BAFF(7) VH - LGGGSG - IgG4-Pro-YTE constant domain; small chain: BAFF(7) VL - IL23A(1) VH - LGGGSG - CL; Tetravalent format

- Kd (cynomolgus IL-23 [1]): < 0.015 nM
- Kd (cynomolgus BAFF): < 0.015 nM
- Kd [2]: < 0.015 nM
- Kd (human BAFF [3]): < 0.015 nM
- IC50 Geomean, NFkB luciferase reporter, human BAFFR-CHO cells [4]: 118 pM
- IC90 Geomean, NFkB luciferase reporter, human BAFFR-CHO cells [4]: 248 pM
- Ratio of binding signal in WB/kinetic buffer (Recombinant human IL-23 [6]): 1.7
- Ratio of binding signal in WB/kinetic buffer (human BAFF [7]): 1.3
- IC50 Geomean, NFkB luciferase reporter, human TACI-CHO cells [8]: 163 pM
- IC90 Geomean, NFkB luciferase reporter, human TACI-CHO cells [8]: 436 pM
- IC50, NFkB luciferase reporter, human BAFFR-CHO cells stimulated with fixed human BAFF CHO-K1 cells [9]: 104 pM
- IC90, NFkB luciferase reporter, human BAFFR-CHO cells stimulated with fixed human BAFF CHO-K1 cells [9]: 938 pM
- IC50, NFkB luciferase reporter, human BAFFR-CHO cells [10]: 34 pM
- IC90, NFkB luciferase reporter, human BAFFR-CHO cells [10]: 172 pM
- IC50, NFkB luciferase reporter, human BAFFR-CHO cells [11]: 4 pM
- IC90, NFkB luciferase reporter, human BAFFR-CHO cells [11]: 12 pM
- IC50, STAT3-luciferase reporter in DB lymphoblast B cells (Recombinant human IL-23 [12]): 128 pM
- IC90, STAT3-luciferase reporter in DB lymphoblast B cells (Recombinant human IL-23 [12]): 3090 pM
- IC50, IL-23-induced mouse IL-17 release from mouse splenocytes (cynomolgus IL-23 [13]): 97 pM
- IC90, IL-23-induced mouse IL-17 release from mouse splenocytes (cynomolgus IL-23 [13]): 1550 pM
- IC50, IL-23-induced mouse IL-17 release from mouse splenocytes (Recombinant human IL-23 [14]): 105 pM
- IC90, IL-23-induced mouse IL-17 release from mouse splenocytes (Recombinant human IL-23 [14]): 1700 pM
B2: Compound D (bispecific antibody, human IgG4 S228P, kappa)
chain 1: B1 chain 1 with A155R, R182K, M185L
chain 2: B1 chain 2 with T85D, Q100G
notes: Large chain: IL23A(1) VL - BAFF(6) VH - LGGGSG - IgG4-Pro-YTE; small chain: BAFF(6) VL - IL23A(1) VH - LGGGSG - CL; Tetravalent format

- IC50 Geomean, NFkB luciferase reporter, human BAFFR-CHO cells [4]: 257 pM
- IC90 Geomean, NFkB luciferase reporter, human BAFFR-CHO cells [4]: 588 pM
- IC50, 3H-thymidine incorporation, primary human B cells stimulated with anti-IgM and hBAFF (human BAFF [5]): 87.3 pM
- IC50 Geomean, NFkB luciferase reporter, human TACI-CHO cells [8]: 241 pM
- IC90 Geomean, NFkB luciferase reporter, human TACI-CHO cells [8]: 618 pM
- IC50, NFkB luciferase reporter, human BAFFR-CHO cells stimulated with fixed human BAFF CHO-K1 cells [9]: 250 pM
- IC90, NFkB luciferase reporter, human BAFFR-CHO cells stimulated with fixed human BAFF CHO-K1 cells [9]: 2920 pM
- IC50, NFkB luciferase reporter, human BAFFR-CHO cells [10]: 70 pM
- IC90, NFkB luciferase reporter, human BAFFR-CHO cells [10]: 417 pM
- IC50, NFkB luciferase reporter, human BAFFR-CHO cells [11]: 15 pM
- IC90, NFkB luciferase reporter, human BAFFR-CHO cells [11]: 38 pM
B3: Control Antibody 3 (anti-BAFF monoclonal antibody) (BAFF (3)) (antibody, V domains shown)
VH: QVQLQQWGAGLLKPSETLSLTCAVYGGSFSGYYWSWIRQPPGKGLEWIGEINHSGSTNYNPSLKSRVTISVDTSKNQFSLKLSSVTAADTAVYYCARGYYDILTGYYYYFDYWGQGTLVTVSS
VL: EIVLTQSPATLSLSPGERATLSCRASQSVSRYLAWYQQKPGQAPRLLIYDASNRATGIPARFSGSGSGTDSTLTISSLEPEDFAVYYCQQRSNWPRTFGQGTKVEIK
